This note sets out measurements from patent US9969998B2, “Compositions of adenosine deaminase-2 (ADA2), variants thereof and methods of using same” (Halozyme, Inc., priority 2014, dated 2018).

Changes are numbered by the printed parent chain. Names may count otherwise.

Data set [1] in a line: Heparin binding ELISA (heparin coated microtiter plate). The following applies: for Average OD450, heparin binding ELISA: Set 2, 3 μM protein; for Heparin Binding ELISA Average OD450: single and S265N combination variants (Table 34). As for the experimental part:
A 96-well plate was coated with 100 μL of 200 μg/mL heparin sodium salt (Calibochem, EMD Milipore, Billerica, Mass.; Cat. No. 375095) in Na2CO3 buffer (pH 9.6), overnight at 4° C. The wells were blocked with 5% milk in PBS, and washed 6 times with PBS. 3 μM of select rHuADA2 variants (see Table 20), WT rHuADA2 (positive control) and WT rHuADA1 (negative control) were added to the wells individually and incubated for 2 hours at room temperature, followed by washing 6 times with PBS. 100 μL of 1:1000 diluted horseradish peroxidase (HRP)-anti-FLAG antibody (Abcam, Cambridge, UK; Cat. No. Ab1238) was added to the wells to detect binding and incubated at room temperature for 1 hour. The ELISA reactions were developed by adding the 3,3′,5,5′-Tetramethylbenzidine (TMB) substrate solution (Pierce, Thermo Fisher Scientific, Rockford, Ill.) according the manufacturer's instructions and reading the optical density at 450 nm (OD450) on a plate reader.
For orientation: ELISA stands for enzyme-linked immunosorbent assay.

The nature of data set [2]: Heparin-affinity chromatography (heparin-Sepharose, SDS-PAGE). Format: binding. Particulars: for Heparin Column Binding: compared to WT rHuADA2, 0.3 mg/mL protein. As for the experimental part:
To assess binding of variants to heparin, heparin-affinity chromatography was employed to identify heparin-bound variants. Heparin binding was tested by mixing 35 μL of rHuADA2 WT and variants with 20 μL heparin-Sepharose™ resin (GE Healthcare, Pittsburgh, Pa.; Cat. No. 17-0998-01), followed by incubating at room temperature for 30 min. The mixture was then centrifuged through a 0.22 μm centrifuge filter and the flow-through, containing the unbound protein, was collected for analysis on an SDS-PAGE gel. 35 μL of 1.5 M NaCl was added to heparin-Sepharose resin and incubated at room temperature (RT) for 10 min to elute the remaining heparin-bound protein from the heparin-Sepharose. Samples of purified WT rHuADA2 and tested variants, before and after mixing with the heparin-Sepharose resin, were analyzed by SDS-PAGE to compare the degree of heparin binding.

Data set [3] in a line: Adenosine deaminase (ADA) enzymatic activity assay kit. The format is biochemical. Particulars: for adenosine deaminase activity mU/mL / ΔA/min, adenosine deaminase activity: protein diluted to 5 μg/mL, serially diluted 2 fold (Table 21); for % activity vs. WT: relative to rHuADA2 WT (Table 21).
Data set [4] is described as follows: Kinetic assessment of adenosine deaminase activity (ammonia assay, Michaelis-Menten). Format: biochemical. Particulars: for Km / Vmax / kcat: [E] = 8.5 nM; for kcat: kcat=Vmax/0.0085/60; for kinetics properties compared to WT: pH 7.6 and pH 6.5. The method, boiled down: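 Coupled ammonia assay: rHuADA2 WT or variants (1 μg/mL, 17 nM in 2× mix) with adenosine 20 μM–20 mM, α-ketoglutarate, NADPH and GDH, at pH 7.6 or pH 6.5 (PIPES), room temperature. Michaelis-Menten fit gave Km, Vmax, kcat, kcat/Km.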

The nature of data set [5]: Spectrophotometric adenosine deaminase assay at varying pH (pH optimum). The format is biochemical. The protocol:
Adenosine deaminase activity of rHuADA2 and variants at varying pH were assessed to determine the pH optimum of each. The adenosine deaminase activity was determined spectrophotometrically by direct measurement of changes in adenosine absorbance. […] During the deamination reaction, the absorbance of ADO decreases while that of INO increases with time. Since the dynamic changes in absorbance make it difficult to monitor activity at a single wavelength, the relative ADO activity was determined as a ratio of the ADO peak to isobestic point (i.e. the wavelength where ADO and INO have the same extinction coefficient). The isobestic point, which is 253 nm, remains unchanged and is concentration independent, so that it is the reference point to correct for volume or intensity discrepancies.
To construct the standard curve for ADO and INO, a series of solution mixtures in 0.001% Tween-20 containing different concentrations of ADO and INO were prepared. The total concentration of ADO and INO mix was 50 μM, in 1×PBS (10 mM phosphate, 137 mM NaCl, 2.7 mM KCl), pH 7.4. The samples were scanned with the wavelengths between 220 nm and 300 nm to determine the isosbestic point, where all spectra cross.
For performing the spectrophotometric adenosine deaminase assay of ADA2 and variants, a 2× solution containing 10 mM ADO in 100 mM potassium phosphate buffer (KPB), 0.1% Tween-20 at different pHs (i.e. 5.5, 6, 6.5, 6.75, 7, 7.25, 7.4, 7.75 and 8) were prepared. A separate 2× solution containing 2 μg/mL WT rHuADA2 or variants were prepared in the same 100 mM potassium phosphate buffer (KPB), 0.1% Tween-20 at the respective pH (i.e. 5.5, 6, 6.5, 6.75, 7, 7.25, 7.4, 7.75 and 8). An equal volume of the ADO solution and the ADA2 solution (wildtype or variants) were mixed to initiate reaction. At each time point (i.e. 1, 3, 5, 7, 9, 11, 13 and 15 min), a small aliquot (4 μl) was removed and diluted 50 times by adding to 196 μl 1×PBS, pH 7.4. The diluted samples were further diluted 2 fold (in duplicates) by adding 85 μl samples to 85 μl 1×PBS in a UV-transparent half area plate. The absorbance at 253 nm and 261 nm were measured of each diluted sample.
Adenosine concentration was determined using the A261/A253 ratio and the standard curve. Adenosine deaminase activity was measured by negative change in ADO concentration per min×100.

A short description of data set [6]: Thermal stability by differential scanning fluorimetry (DSF). Format: physicochemical. Particulars: 0.1-1 mg/mL protein. The protocol:
The stability of the rHuADA2 WT and variants was measured by differential scanning fluorimetry (DSF) at increasing temperatures. DSF measures conformational stability, which correlates with thermal stability. The melting temperature (Tm) in DSF is defined as the midpoint of the protein unfolding transition.
Non-PEGylated WT rHuADA2, non-PEGylated rHuADA2 variants, and PEGylated forms of WT rHuADA2 and rHuADA2 variants were prepared at concentrations of 0.1-1 mg/mL and mixed with the ROX™ protein thermal shift dye (Applied Biosystems, Carlsbad, Calif.; Cat. No. 4461146) to a final dye concentration that corresponds to a 125-fold dilution of the stock ROX™ solution. Protein samples were then loaded into 96-well plate at a volume of 20 μL/well in triplicate. A ViiA7 RT-PCR System (Applied Biosystems, Carlsbad, Calif.) was used to measure the shift in fluorescence as the temperature of the samples were increased. The reactions were subjected to the following steps: incubation at 25° C. for 2 min; ramping of temperature from 25 to 99° C. at a rate of 0.05° C. per second; followed by a 99° C. incubation for 2 min. The wavelengths used for emission and excitation were 623 nanometers (nm) and 580 nm, respectively.
(Differential scanning fluorimetry follows unfolding on heating by fluorescence.)

B1: K455E: ADA2 variant SEQ ID NO:27 (protein)
chain: IDETRAHLLLKEKMMRLGGRLVLNTKEELANERLMTLKIAEMKEAMRTLIFPPSMHFFQAKHLIERSQVFNILRMMPKGAALHLHDIGIVTMDWLVRNVTYRPHCHICFTPRGIMQFRFAHPTPRPSEKCSKWILLEDYRKRVQNVTEFDDSLLRNFTLVTQHPEVIYTNQNVVWSKFETIFFTISGLIHYAPVFRDYVFRSMQEFYEDNVLYMEIRARLLPVYELSGEHHDEEWSVKTYQEVAQKFVETHPEFIGIKIIYSDHRSKDVAVIAESIRMAMGLRIKFPTVVAGFDLVGHEDTGHSLHDYKEALMIPAKDGVKLPYFFHAGETDWQGTSIDRNILDALMLNTTRIGHGFALSKHPAVRTYSWKKDIPIEVCPISNQVLKLVSDLRNHPVATLMATGHPMVISSDDPAMFGAKGLSYDFYEVFMGIGGMKADLRTLKQLAMNSIEYSTLLESEKNTFMEIWKKRWDKFIADVATK
modifications: human ADA2 K452E, mature numbering
With B1, the “Average OD450, heparin binding ELISA” value in data set [1] is recorded as 0.26. Moreover, in data set [2], the “heparin binding compared to WT” value is given as “attenuated heparin binding” and the “Heparin Column Binding” value was “Reduced”. Besides, in data set [3], the “enzymatic activity relative to WT rHuADA2” value is on record as “improved enzymatic activity”; the “adenosine deaminase activity mU/mL” value turned out to be 127.3 mU/mL; the “ΔA/min, adenosine deaminase activity” value turned out to be 55.4; the “% activity vs. WT” value turned out to be 163.2%.

B2: S265N/K374E: ADA2 combination variant SEQ ID NO:60 (protein)
chain: B1 chain with S262N, K371E, E452K
modifications: human ADA2 S262N/K371E, mature numbering
One may read the Km as the substrate concentration at which the rate is half of its maximum. As usually defined, the Vmax is the top rate of the reaction or transport when substrate is in excess. Broadly, the kcat is the maximal rate divided by the concentration of active sites. On to B2, for which the Km in data set [4] (pH 6.5) amounted to 1410 µM; in data set [4] (pH 7.6), 2540 µM. Also, the Vmax in data set [4] (pH 6.5) was found to be 57.13 µM/min; in data set [4] (pH 7.6) it was 87.44 µM/min. Further, the turnover number (kcat) in data set [4] (pH 6.5) was 112.02 s⁻¹; in data set [4] (pH 7.6), 171.45 s⁻¹. For the same molecule, the “kinetics properties compared to WT” value in data set [4] is listed as “greatest improvements in catalytic activity at pH 6.5”. Also, the “Adenosine deaminase activity Δ [ADO]/min × (−100)” value (“Adenosine deaminase activity Δ” below) is recorded as 31.84 in data set [5] (pH 5.5); 44.31 in data set [5] (pH 6); 50.23 in data set [5] (pH 6.5); 54.55 in data set [5] (pH 6.75); 59.68 in data set [5] (pH 7); 60.07 in data set [5] (pH 7.25). In addition, the “Adenosine deaminase activity Δ” value in data set [5] (pH 7.4) was 57.15; in data set [5] (pH 7.75) it was 28.28; in data set [5] (pH 8), 1.77. The “Heparin Binding ELISA Average OD450” value in data set [1] came to 0.6. In addition, the “Tm, melting temperature by DSF” value in data set [6] worked out at 61.3 °C.

B3: S265N/R23E: ADA2 combination variant SEQ ID NO:61 (protein)
chain: B1 chain with R20E, S262N, E452K
modifications: human ADA2 S262N/R20E, mature numbering
Turning to B3, the Km in data set [4] (pH 6.5) was 1430 µM; in data set [4] (pH 7.6), 2900 µM. For the same molecule, the Vmax in data set [4] (pH 6.5) was 53.25 µM/min; in data set [4] (pH 7.6), 63.13 µM/min. Besides, the kcat stood at 104.41 s⁻¹ in data set [4] (pH 6.5) and 123.78 s⁻¹ in data set [4] (pH 7.6). Besides, the “kinetics properties compared to WT” value in data set [4] was “greatest improvements in catalytic activity at pH 6.5”. Also, the “Adenosine deaminase activity Δ” value in data set [5] (pH 5.5) amounted to 27.34; in data set [5] (pH 6), 38.26; in data set [5] (pH 6.5), 45.58; in data set [5] (pH 6.75), 48.49; in data set [5] (pH 7), 51.90; in data set [5] (pH 7.25), 56.12. Besides, the “Adenosine deaminase activity Δ” value in data set [5] (pH 7.4) was 50.44; in data set [5] (pH 7.75) it was 24.42; in data set [5] (pH 8) it was 4.63. Moreover, the “Heparin Binding ELISA Average OD450” value in data set [1] turned out to be 1.03. The “Tm, melting temperature by DSF” value in data set [6] was 59.6 °C.

B4: R369E: ADA2 variant SEQ ID NO:33 (protein)
chain: B1 chain with R366E, E452K
modifications: human ADA2 R366E, mature numbering
As to B4, the “Average OD450, heparin binding ELISA” value in data set [1] was 0.18. In addition, in data set [2], the “heparin binding compared to WT” value is reported as “attenuated heparin binding” and the “Heparin Column Binding” value was “Reduced”. In data set [3], the “enzymatic activity relative to WT rHuADA2” value is recorded as “improved enzymatic activity”; the “adenosine deaminase activity mU/mL” value was found to be 115.9 mU/mL; the “ΔA/min, adenosine deaminase activity” value was 50.4; the “% activity vs. WT” value worked out at 148.5%.

B5: R23A/K374A: ADA2 variant SEQ ID NO:57 (protein)
chain: B1 chain with R20A, K371A, E452K
modifications: human ADA2 R20A/K371A, mature numbering
With B5, the “Average OD450, heparin binding ELISA” value in data set [1] is 0.17. In data set [2], the “Heparin Column Binding” value is reported as “Reduced”. Moreover, in data set [3], the “adenosine deaminase activity mU/mL” value stood at 117.6 mU/mL; the “ΔA/min, adenosine deaminase activity” value is recorded as 51.1; the “% activity vs. WT” value stood at 150.7%.
